# T1: Rb^380-816/780A, unphosphorylated (UniProt P06400 380-816, 780A)
# T1 sequence (looked up): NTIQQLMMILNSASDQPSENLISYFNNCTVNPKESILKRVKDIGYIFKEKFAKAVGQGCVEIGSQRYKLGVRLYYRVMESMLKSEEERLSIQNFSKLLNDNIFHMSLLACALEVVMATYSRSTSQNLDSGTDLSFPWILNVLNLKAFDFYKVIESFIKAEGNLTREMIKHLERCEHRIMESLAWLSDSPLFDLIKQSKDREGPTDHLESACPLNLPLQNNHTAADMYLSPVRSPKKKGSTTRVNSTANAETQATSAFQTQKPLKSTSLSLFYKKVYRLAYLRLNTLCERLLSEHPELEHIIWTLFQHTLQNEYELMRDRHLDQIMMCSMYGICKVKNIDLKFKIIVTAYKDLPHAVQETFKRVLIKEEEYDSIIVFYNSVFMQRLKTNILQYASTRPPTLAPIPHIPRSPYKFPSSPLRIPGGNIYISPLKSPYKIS
# Legend:
# Experiment in all cases: ITC
# [1] = target: Rb^380-794∆PL/S780A, phosphorylated (UniProt P06400)
# [2] = target: Rb^380-794∆PL/S780A, unphosphorylated (UniProt P06400)
# [3] = target: Rb^380-800∆PL/S780A, phosphorylated (UniProt P06400)
# [4] = target: Rb^380-800∆PL/S780A, unphosphorylated (UniProt P06400)
# [5] = target: Rb^380-816∆PL/S780A with S788 and S795 substituted to alanine, phosphorylated (UniProt P06400)
# [6] = target: Rb^380-816∆PL/S780A with S788 and S795 substituted to alanine, unphosphorylated (UniProt P06400)
# [7] = target: Rb^380-816∆PL/S780A with S807 and S811 substituted for alanine, phosphorylated (UniProt P06400)
# [8] = target: Rb^380-816∆PL/S780A, phosphorylated (UniProt P06400)
# [9] = target: Rb^380-816∆PL/S780A, unphosphorylated (UniProt P06400)
# [10] = target: Rb construct phosphorylated at Rb^IDL (T356/T373) (construct of Table 2)
# [11] = target: Rb^53-800∆NL/∆PL/S780A, phosphorylated (UniProt P06400)
# [12] = target: Rb construct phosphorylated at RbC^N (S788/S795) (construct of Table 2)
# [13] = target: Rb construct phosphorylated at Rb^PL (S608/S612) (construct of Table 2)
# [14] = target: Rb^53-800∆NL/∆PL/S780A, unphosphorylated (UniProt P06400 53-800, S780A)
# [15] = target: Rb^53-800∆NL/∆PL/S780A, phosphorylated (UniProt P06400 53-800, S780A, phosphorylated with Cdk; Rb^IDL (T356/T373) and RbC^N (S788/S795) sites)
# [16] = target: T1, Rb^380-816/780A, unphosphorylated
molecule,measurement,setting,value
"E2F1 transactivation domain (E2F1^TD, residues 372-437) (from UniProt Q01094 372-437) (domain or fragment)",Kd,[1],270 nM
same,Kd,[2],120 nM
same,Kd,[3],510 nM
same,Kd,[4],50 nM
same,Kd,[5],130 nM
same,Kd,[6],90 nM
same,Kd,[7],510 nM
same,Kd,[8],470 nM
same,Kd,[9],70 nM
E2F2 transactivation domain (E2F2^TD) (domain or fragment),fold inhibition of binding against the unphosphorylated construct,[10],2 fold
same,fold reduction in binding affinity against the unphosphorylated construct,[11],22 fold
E2F3 transactivation domain (E2F3^TD) (domain or fragment),fold rise of Kd against the unphosphorylated construct,[12],10 fold
same,fold inhibition of binding against the unphosphorylated construct,[10],25 fold
same,fold rise of Kd against the unphosphorylated construct,[13],9 fold
"E2F1 transactivation domain (E2F1^TD, residues 372-437) (domain or fragment, UniProt Q01094 372-437, looked up) DRLSPLVAADSLLEHVREDFSGLLPEEFISLSPPHEALDYHFGLEEGEGIRDLFDCDFGDLTPLDF",Kd,[14],130 nM
same,Kd,[15],30000 nM
same,Kd,[16],70 nM

# Source: paper PMC3872205 (Journal of molecular biology, 2013)
